Laboratory results reported in paper PMC5180416 (Journal of the American Chemical Society, 2012).
Like-named read-outs stand apart in the source and are kept apart here. Square brackets hold non-standard residues; d marks the D form. ACPC = not defined here; Ac3c = NC1(C(=O)O)CC1

Legend:
[1] = target: T1, WDR5 (WD (Trp-Asp) repeat domain 5) (UniProt P61964 1-334); test: fluorescence polarisation
[2] = target: T1, WDR5 (WD (Trp-Asp) repeat domain 5); test: fluorescence polarisation; remark: listed apart in the source

Ki [1] [nM]	Ki [2] [nM]	Binder
600		Ac-Val-Arg-[ACPC]-NH2 (reading uncertain) [VR-ACPC]
	60	Ac-[Ac3c]-Arg-Val-NH2 [ACPC-RV]
